Experimental data from US20250154548A1, “CONTROL OF ENZYMATIC NUCLEIC ACID SYNTHESIS VIA ELECTROCHEMICAL MEANS” (The Charles Stark Draper Laboratory, Inc., priority 2023, published 2025).

Assay: Proteinase K activity as a function of pH and after pH neutralization
Format: biochemical
Settings: for recovery of proteinase K activity after neutralization: after exposure to highly acidic (pH 3.5) or basic (pH 12) conditions, neutralized to pH 7 to 7.5
From the text: FIGS. 1A-1C provide information on activating proteinase K at different pH conditions.
Another method of deblocking after nucleotide addition using a conjugated enzyme is to digest the protein around the extended DNA. Proteinase K (ProK) is a hydrolase that digests proteins at aliphatic and aromatic residues making it a broad-spectrum protease^1 that could be used to fully digest TdT releasing the extended DNA for the next round of addition. This enzymatic cleavage step could potentially be spatially controlled via an electrochemically driven pH change, as depicted in FIG. 1A. […] A voltage would then be applied to electrodes near the DNA site to be cleaved for the next addition. This would cause a shift in the pH near this active electrode that would re-activate ProK to digest nearby TdT molecules, deblocking the DNA for subsequent nucleotide addition. ProK has some natural pH sensitivity^1-2 and could be further engineered to shift the activity profile into a desirable pH range.

B1: Proteinase K: hydrolase that digests proteins at aliphatic and aromatic residues, a broad-spectrum protease (protein, UniProt P06873 106-384, looked up)
Proteinase K: AAQTNAPWGLARISSTSPGTSTYYYDESAGQGSCVYVIDTGIEASHPEFEGRAQMVKTYYYSSRDGNGHGTHCAGTVGSRTYGVAKKTQLFGVKVLDDNGSGQYSTIIAGMDFVASDKNNRNCPKGVVASLSLGGGYSSSVNSAAARLQSSGVMVAVAAGNNNADARNYSPASEPSVCTVGASDRYDRRSSFSNYGSVLDIFGPGTSILSTWIGGSTRSISGTSMATPHVAGLAAYLMTLGKTTAASACRYIADTANKGDLSNIPFGTVNLLAYNNYQA
  recovery of proteinase K activity after neutralization: recovers
Listed as ProK
  recovery of proteinase K activity after neutralization: activity can be recovered
At pH 12.5
  proteinase K activity: negligible activity
Below pH 5 and above pH 10
  proteinase K activity (relative to activity at pH 7.3): complete dropoff in activity
